Test: soluble on expression in E. coli; label from the status in PepcDB or PDB records

Row | Sequence | soluble on expression in E. coli
1 | MDLTQLEMFNAVAEAGSITQAAAKVHRVPSNLTTRLRQLETELGVDLFIRENQRLRLSPAGHNFLRYSQQILALVDEARSVVAGDEPQGLFSLGSLESTAAVRIPATLAEFNRRYPKIQFSLSTGPSGTMLDGVLEGKLNAAFIDGPINHTAIDGIPVYREELMIVTPQGYAPVTRASQVNGSNIYAFRANCSYRRHFESWFHADGAAPGTIHEMESYHGMLACVIAGAGIALIPRSMLESMPGHHQVEAWPLAEQWRWLTTWLVWRRGAKTRPLEAFIQLLDVPDSARQGYQ | soluble
2 | SLQGKPTISVPEFKNDTNMSWWWWSGNTSRELADALSNELTSTGNFQVVERQNLGSVLSEQELAELGLTRPETSAQRGQLTGAQYIVLGRVTAYEEGVSSESGGNNFGLNLGLFSIGNSERQAKQEAYVAIDLRVVDSSTGEVVYARTVEGRATDTAASSANNVNILGIVNTGQDNQSTSRAPVGKALRAGLVEITDYLSCVMVEQDNCIQEYQDKDRQRRQKTKDTLILE | soluble
3 | MGSDKIHHHHHHMSDKLSQEQIDALLSQMSEGKVVDESTEIGDFGRFHPYDFHKPEKFGAEHLESLKTIASAFTKKSMEFVSQRIRIPIHTEATLADQVSFASGYIETMPNDSYIFCIIDLGNPELGQIIIELDLAYIIYIHECLSGGNPKRKLSERRLLSVFEELTLKSILEKFCEALKDSFKSVHPISPEIVNIETNPALLRVTSPNDMMALVSVDIKSEFWISTMRIGVPFFSVEEIMNKLENVVEYTFDKRRNFDAEVEQELHQVEKEARIRVGEIKTTWKELNMLEVGDVLLTETHIRDTLKGYVTEKWKFECYMGKSGNQKAVKFMRHTGRTEQER | not soluble
4 | FADRMVIKAQSPAGFAEEYIIESIWNNRFPPGTILPAERELSELIGVTRTTLREVLQRLARDGWLTIQHGKPTKVNNFWETSGLNILETLARLDHESVPQLIDNLLSVRTNISTIFIRTAFRQHPDKAQEVLATANEVADHADAFAELDYNIFRGLAFASGNPIYGLILNGMKGLYTRIGRHYFANPEARSLALGFYHKLSALCSEGAHDQVYETVRRYGHESGEIWHRMQKNLPGDLAIQGR | soluble
5 | MNRWQGIIKQYKKYLPVDENTPIVTLYEGNTPLIEADNLARAIGFKGKIYLKYEGLNPTGSFKDRGMTLAISKAVEAGKRAVICASTGNTSASAAAYAARAGLRAYVLLPKGAVAIGKLSQAMIYGAKVLAIQGTFDDALNIVRKIGENFPVEIVNSVNPYRIEGQKTAAFEICDTLGEAPDYHFIPVGNAGNITAYWKGFKIYYEEGKITKLPRMMGWQAEGAAPIVKGYPIKNPQTIATAIKIGNPYSWKSALKAAQESGGKIDAVSDSEILYAYKLIASTEGVFCEPASAASVAGLIKLVREGFFKGGEVVTCTLTGNGLKDPDTAIKVCEEPITVPPDFDEVVKVLGF | soluble
6 | MSLIYPEITGKSGEHLRLKTLESVWIQGKLRMWGRWSYIGDGKTGNMFNQLLTSKKLTKTAINEALRRMKKAGLDKPELEAFLRDMINGNQKSWLAHCTDSEALIIDRVIGEVLAGYPGLLNVLSQRYVGRGMTKRKMAELLNDAHPEWSLRTCERRIEHWLKVAEFILYKPMVMAFGIEKKVIAFEGHHHHHH | soluble
7 | MGSDKIHHHHHHMFIENYCPISADRISFTRQQGSDFAKQVADDFNPLHNIDAKRFCVPGDLLFSIIIAKSGLHKNMTFDFSGMVSDDVHLTFPQEIDESFDIKDDKDKTCLSVHVSGDKTHESVLINALTKAYVDFSGHTFPDILVKLMADNSVMINPARPMVMYQSMSIDLHTLTAETVTLKLAKTSLSIEGKRGDAWLEFDLLSNDKVIGHGKKHMLLSGLRTYEQETIDAMVNQYRDSKKNYQA | not soluble
8 | MGSDKIHHHHHHMNNKERLLYVQEILQKETDEENELTLEQIMTKLHAVKGTEVNKKTLRDDLNALKDSGLFPISVNQEKNGVEKTYQHRTKLFTIQELRLLADALTTASFISKEETEQMINKLKKLTSHRLADHLDNRLLVPPDRGNREVQELIKTVHLLHDVIKHGEVIRYQYGQYNLTKEFTLRENGRFYTLKSYALIWDDQRYYLIGEDEDEDLIRYERVDQMYHVERTGAFFTWPEKFDLMEWLRTHSSVMTEQKEDLQLECHLDSLQDVLDCFGLDVTIQSLTDERFLLATKAVIDKGLMDWLFSLGGKVKVIHPPKLAEEIQREATAIIDQYRLANS | not soluble
9 | MGVHSFWDIAGPTARPVRLESLEDKRMAVDASIWIYQFLKAVRDQEGNAVKNSHITGFFRRICKLLYFGIRPVFVFDGGVPVLKRETIRQRKERRQGKRESAKSTARKL | not soluble
10 | YVSTDGDDIYVGKNNKQNDYLTNKKAKKTHTWLHTKDIPGSHVVIFNDAPSDTTIKEAAMLAGYFSKAGNSGQIPVDYTLIKNVHK | not soluble
11 | MGSDKIHHHHHHMQRIAMISEHASPLASVGSVDSGGQNVYVAHLARQLGKSGYLVDVFTRRDKALLPDVVAFAPNVRVVHVPAGPAVFVPKEQLLSFMPAFGDSMVDFMRRDAIGYDVLHANFFMSGVAAMRAREVLDIPLVMTFHALGKVRRLHQGSADGFPDNRFEIEDELVRHADRVVAECPQDLDDLATLYGGDPERIDIVPCGFDEEEFAPLDRAEARRALDWDADVFTVLQLGRLVPRKGIDNVIRAIGHLRRDFRIPARLYVVGGNAEQPSVEATPEIGRLQGVADEAGVSDCVTFVGRRRRSQLCHFYSASDVFVTTPWYEPFGITPVEAMACGVPVVGADVGGIRSTVVDGETGYLVPPHAPEALADRLARLAGDRALARRMGAAGLQRAHANYTWMSVARTMEQVYARVMRAERPARRVAA | not soluble
12 | MGSDKIHHHHHHMDTKAFKRALHQSDRYNRKGFGKTTDVSGALESAYQSDLIQSLRQNGYRLQRGEITIRLAEAFGFCWGVERAVAIAYETRQHFPQERIWITNEIIHNPSVNQHLREMSVEFIPCERGEKDFSVVDRGDVVILPAFGASVQEMQLLDEKGCHIVDTTCPWVSKVWNTVEKHKRGAHTSIIHGKYNHEETVATSSFAETYLVVLNLEQAQYVCDYILNGGDRDEFMTRFGKACSAGFDPDRDLERIGIANQTTMLKSETEAIGKLFERTLLKKYGPQALNDHFLAFNTICDATQERQDAMFQLVEEPLDLIVVIGGFNSSNTTHLQEIAIERQIPSFHIDAAERIGPGNRIEHKPLHTDLTTTEPWLPAGPLTIGITSGASTPDKVVEDVIERLFDLQRS | not soluble
13 | MNNMKKYLSLCIMLLCLCSTVMAQQEKVVVKGVVTDEAKEPLIGVNVTVKDMPGLGSITDMNGHYSITMEPYRQLVFTYIGYESKEVMVKEQRTINVVMKESVTRAVDEVVITGTGVQRKLTQTGAITTVDVGELKRNPSSSIVNALAGNVPGIMARQTSGQPGKNISEFWIRGISTFGANSSAYVLVDGFERSMDEINIEDIETFTVLKDASATAIYGSKGANGVVLITTKRGKAGKIKIDAKVETTYNTRTVLQSSKTDLLMPA | not soluble
14 | MQANGVWSLQPLADMSAAEFRDWQVLLENRTGVVLNEQRRTFLQASLTARMRELGIGDYHSYYRQVTDGPRGAVEWATLLDRLTVQETRFFRHPPSFELLERYLGERLRREGMPRPWALWSVGCSSGEEPYSLAMCAAQVLRGQEREDFFGVTGTDISLHALQRARQANYPARKLEQLEAGLVERYCERQADGSFSVKTILTERVCCARLNVLDLAKAPWSGMDVIFCQNLLIYFRRWRRREILNRLAERLAPGGLLVIGVGEVVDWSHPELEPVADERVLAFTR | not soluble
15 | MGSDKIHHHHHHNDDDDKYYYPTNFENLSLPNDTIIAKGEDLTLKPTLNLINPKIYSWKIDGKEVSNEVNYTFSTSVGGKHEIIFEAQDSKGNTDKAQITVDVFAYYGGFYVINEGWAGHDPASVNYYKDGKWNFNIVESLGQTGTVGVIQDSYMYIVAKDAPYLTQIELANFNITKQLSTEIEEQLDYGQANSFCTINETTGILTASRGAYKINLNPLSIGNMLPQLNSESANGNGCKDILKSGDYVFVNNMDTIKIYKSSDLSFVKKLTALMKTGFAQTKDGNIWAANGQSLIKIDPKTLDETTVELPDNINVFYNQWAYTPTGLCASTTENALYIVNTTVVPGAYGDSYYGKNIYKYNTESKIAQEFFKAPSKIQSIYGAGIQVNPQNGDVYLIYTEDGYGTHYLNTNIYVADGQSGTQKQIIDYTGKYWFPSSIVFK | not soluble
16 | VKSNKGFEAIAWDPLRQRLIIGEERPPKLYTWNTDGRSPLKGEKQPLPSDELDLRNLSALGVDPRTGHLLVLSADSNMLLELDEQGQQVSFMTLLGGFNGLE | not soluble
17 | SLNVPDMILYNGKITTLDPSQPEVSAIAITDGLITAVGGYELLNSATEKTKKIDLKRKRAIPGLNDSHIHVIRGGLHYNMELRWEGVPSIAIALEMLKEQARRTPAPQWVRVVGGWSEFQFKERRMPTLEEINAVSEDTPVFVLHLYDRALVNRAGLRALGYTKDTPDPPGCLIERDKRGNPTGLLIANPNASILYSSLGKAPILNFDDQINSTRHFMRELNRLGITSAIDAGGGFQNYPDDYRVVEHLAEKEQLTLRIAYNLFTQNPNHEYEDFASWAKIVSPGQGNDKYKMNGAGEMLVFSAADFEKFQMPRPELATMMEADLKKVISLLVENRWPFRLHATYDESITRFLNVFEEVNKEIPFNGLRWWFDHAETISDRSMERVKALNGGIAIQDRMAFQGEYFVDLYGKEAAKRTPPIYRMLDLGIPVGAGSDATRVSSYNPWVALYWMVAGKTIGGLSIYDKKNKLDRKVALELYSKGSAWFSGDEGKKGTLAVGQFADIAVLSADYFTVPEEEIKDLESLLTIMGGQVVYGNDEFKNLSPELPPASPDWSPTGVYGYGGANLAHTILSHNSHDNKLHSCSNPLHQHTHTVIGKDGTKWGIGCTCFAF | not soluble
18 | MFTSKPAFKIKNKASKSYRNTAVSKKLKEKRLAEHVRPSCFNIIRPLKKDIQIPVPSSRFLNKIQIHRIASGSQNTQFRQFNKTSIKSSKKYLNSFMAFRAYYSQFGSGVKQNVLSSLLAEEWHADKMQHGIWDYFAQQYNFINPGFGFVEWLTNNYAEVRGDGYWEDVFVHLAL | not soluble
19 | MATPEGQAEEKAVKLAAEEINAQGGILGYKVEVVVGDTKLDSNTATSEFRRLATVENADVIIGGFSSGVMTAMMETMAETKTLFLSDASSPAHAQKVEQNYEKYKYWFRVSQNNGSTFALDLADMVKFLRDSGYEVKKVYIIRDEHVWTDPVMAALKPLLEEMGVEIVKDVKIPRGYSEYEQLILEAESLNADLIMPILAISGTGDVLAKQWATLKPNLLLAGHDLAPIDPEFYEKTNGMANYEIFLADGGALVTAPPTEKCREFVEAYKAKYGHYPESHQAYGAYDAVYLYKMVVEMAAKNGEKDPFNPDVLVKYLEKFDASNPVKLTRTIAFYPNHDLMWGDDYVRNWISQWQDGKQYIIYPPSVANGELKLPPWIEK | not soluble
20 | HMTDLKASSLRALKLMDLTTLNDDDTDEKVIALCHQAKTPVGNTAAICIYPRFIPIARKTLKEQGTPEIRIATVTNFPHGNDDIDIALAETRAAIAYGADEVDVVFPYRALMAGNEQVGFDLVKACKEACAAANVLLKVIIETGELKDEALIRKASEISIKAGADFIKTSTGKVAVNATPESARIMMEVIRDMGVEKTVGFKPAGGVRTAEDAQKYLAIADELFGADWADARHYRFGASSLLASLLKALGHGDGKSASSY | soluble
21 | MAHHHHHHMHLLHDFKNIYCLLPSDYKNFLQKIRTLPCSVNKNMQGEKEIYILKKYMKMLNYEFITFIHGPYVLHICDPFYKIYLEWENGWKLYPLYQQNAERHFRENKITHLRKEGFSEILICHDAFANCPSDEEKMNYLSSVLQRTKFSKCSSIICGPAAIAPPPVVSPDIYL | not soluble
22 | MGSDKIHHHHHHMKMEELFKKHKIVAVLRANSVEEAKEKALAVFEGGVHLIEITFTVPDADTVIKELSFLKEKGAIIGAGTVTSVEQCRKAVESGAEFIVSPHLDEEISQFCKEKGVFYMPGVMTPTELVKAMKLGHTILKLFPGEVVGPQFVKAMKGPFPNVKFVPTGGVNLDNVCEWFKAGVLAVGVGSALVKGTPDEVREKAKAFVEKIRGCTE | soluble
